{"source": "patent US6495314B1", "about": "“Process for characterizing proteins” (The Scripps Research Institute, priority 1995, dated 2002)", "note": "“Also recorded” adds a separate entry of the source.", "data": [{"molecular_target": "T1, C3G-peptide (Homo sapiens, UniProt Q13905)", "T1 construct": "made in house; host or cells: chemical synthesis", "assay": "Binding of Crk-N to the C3G-peptide in solution", "conditions": "purified synthetic Crk-N", "description": "FIG. 3 illustrates preliminary iterative signature analysis data on residues 156-165 of the peptide Crk-N. a) Represents a comparison of the elution profiles obtained for the protein family using a C3G-peptide agarose column and a Leucine-Enkephalin agarose column (control). […] Single letters refer to amino acid pairs substituted with the -Gly-SCH2CH2CO— marker. d) Comparison of the MALDI MS spectra of the ammonium acetate wash and the entire 9 component synthetic Crk-N family cleaved with ammonium acetate. In both cases the N-terminal peptide ladder is observed at a much higher intensity than the equimolar C-terminal peptide ladder.\nThe folded protein was structurally characterized by NMR and crystallization (The folded protein was characterized by two dimensional NOESY 1H NMR spectroscopy. In addition, the synthetic protein solution used for NMR analysis spontaneously formed crystals upon storage at 4° C. These crystals diffracted to >2.3 Å allowing for the solution by molecular replacement. Refinement of the structure is in progress). The resulting synthetic protein domain was then assayed for its affinity for two different proline-rich peptides. […] This change in solvent exposure leads to an increase in the fluorescence intensity of the tryptophan sidechain which can be monitored as a function of increasing ligand concentration (Feng et al. Science 1994.266, 1241-1245). […]", "units": {"Kd": "nM"}, "values": [{"molecule": "CC[C@H](C)[C@H](NC(=O)[C@H](CC(=O)O)NC(=O)CNC(=O)[C@H](CCCCN)NC(=O)[C@H](CCCCN)NC(=O)[C@H](Cc1ccccc1)NC(=O)[C@@H]1CCCN1C(=O)[C@H](CC(C)C)NC(=O)[C@H](CC(=O)O)NC(=O)[C@H](CCC(=O)O)NC(=O)[C@H](CCC(=O)O)NC(=O)[C@H](CC(=O)O)NC(=O)[C@H](CC(N)=O)NC(=O)CNC(=O)[C@H](CC(N)=O)NC(=O)[C@H](Cc1ccccc1)NC(=O)[C@H](CC(=O)O)NC(=O)[C@H](Cc1ccccc1)NC(=O)[C@H](CC(C)C)NC(=O)[C@H](C)NC(=O)[C@H](CCCNC(=N)N)NC(=O)[C@@H](NC(=O)[C@H](Cc1ccc(O)cc1)NC(=O)[C@H](CCC(=O)O)NC(=O)[C@H](C)N)C(C)C)C(=O)N[C@@H](CC(C)C)C(=O)N[C@@H](CCCNC(=N)N)C(=O)N[C@H](C(=O)N[C@@H](CCCNC(=N)N)C(=O)N[C@@H](CC(=O)O)C(=O)N[C@@H](CCCCN)C(=O)N1CCC[C@H]1C(=O)N[C@@H](CCC(=O)O)C(=O)N[C@@H](CCC(=O)O)C(=O)N[C@@H](CCC(N)=O)C(=O)N[C@@H](Cc1c[nH]c2ccccc12)C(=O)N[C@@H](Cc1c[nH]c2ccccc12)C(=O)N[C@@H](CC(N)=O)C(=O)N[C@@H](C)C(=O)N[C@@H](CCC(=O)O)C(=O)N[C@@H](CC(=O)O)C(=O)N[C@@H](CO)C(=O)N[C@@H](CCC(=O)O)C(=O)NCC(=O)N[C@@H](CCCCN)C(=O)N[C@@H](CCCNC(=N)N)C(=O)NCC(=O)N[C@@H](CCSC)C(=O)N[C@H](C(=O)N1CCC[C@H]1C(=O)N[C@H](C(=O)N1CCC[C@H]1C(=O)N[C@@H](Cc1ccc(O)cc1)C(=O)N[C@H](C(=O)N[C@@H](CCC(=O)O)C(=O)N[C@@H](CCCCN)C(=O)N[C@@H](Cc1ccc(O)cc1)C(=O)N[C@@H](CCCNC(=N)N)C(=O)O)C(C)C)C(C)C)[C@@H](C)CC)[C@@H](C)CC", "note": "[synthetic Crk-N]", "Kd": 2300}]}, {"molecular_target": "T2, C3G-derived synthetic peptide (Homo sapiens, UniProt Q13905)", "T2 construct": "made in house; host or cells: chemical synthesis on 4-methyl benzhydrylamine resin", "assay": "C3G-derived synthetic peptide affinity column binding with MALDI readout", "conditions": "Gly-[COS]-βAla analogue unit; 19-member array, residues 146-165 of c-Crk SH3 domain (Example 3)", "procedure": "An affinity column carrying a synthetic C3G derived peptide was prepared by reaction of the cysteine side chain of Acetyl-CWAcp-[…].amide (SEQ NO ID NO 14) with an iodoacetylated agarose matrix. The linker Acetyl-CWAcp- was designed to combine a reactive sulfhydryl on the Cys sidechain with a spectroscopic tag in the Trp residue, and to introduce a flexible spacer region between the support and the peptide ligand in the form of ε-aminocaproic acid. The amount of peptide on the column, was determined as 5 μmol/mL of the swollen agarose matrix from the absorbance at 280 nm of the peptide solution before and after reaction with the column.\nThe column was then washed with 0.5 M NaCl buffer to remove nonspecific binding proteins from the column. Specifically bound protein analogues were then eluted with 1 M hydroxylamine bufffer. Amounts of eluted peptide were monitored by UV absorbance at 280 nm. This procedure was used for both the C3G peptide column and for the control column loaded with Ac-C-AcpYGGFL.amide. The hydroxylamine cleavage of the thioester bond results in the elution of peptide fragments corresponding to the proteins which were able to bind to the affinity column under these conditions. Specific binding was found only for the C3G peptide column.\nThe composition of the parent array of SH3 protein analogues, as well as the binding and non-binding fractions obtained from affinity chromatography was determined by chemical cleavage and MALDI MS. First, the parent array of folded protein analogues and the 0.5 M NaCl wash from the affinity chromatography of the array were cleaved separately with hydroxylamine. After a desalting step, MALDI mass spectra were obtained for the peptide fragments generated from the (parent) protein array, the salt wash (non-binding) and for the peptide fragments generated by the hydroxylamine elution of the specifically bound analogues (binding). Nine components were present in the array of protein analogues that was added to the C3G column as one mixture (FIG. 26A). […] Three protein analogues, however, were able to bind to the C3G peptide on the column and were eluted only after cleavage with hydroxylamine (FIG. 26C). One of the protein analogues can be identified in both the wash and elution spectra, indicating intermediate folding and/or binding properties for this analogue.\nThe C3G-derived synthetic peptide affinity column was prepared by adding 10 mg of lyophilized Ac-CWAcp[…].amide (SEQ ID NO 24) (Acp=ε-amino caproic acid) in 2 mL of 50 mM Tris, 5 mM EDTA, pH 8.0 buffer to Sulfolink™ resin (Pierce), equilibrated in the same buffer, for 1 hour while shaking. Unreacted iodoalkyl groups on the resin were then blocked by treatment with 50 mM cystamine, 50 mM Tris, 5 mM EDTA, pH 8.0 buffer for 1 hour. The loading of the column was determined by UV absorbance of the unreacted peptide solution and was approximately 5 μmol/mL. A similar procedure was used to attach the control peptide Ac-CAcpYGGFL.amide (SEQ ID NO 25) to the another batch of the Sulfolink™ support.\nLyophilized crude synthetic polypeptide corresponding to the cCrk SH3 domain (1.5 mg) and BSA (8.5 mg) were dissolved in 20 mM HEPES, 50 mM NaCl, pH 7.3 buffer (400 μL) and loaded on to a 1 mL C3G-derived synthetic peptide affinity column pre-equilibrated with the same buffer. The column was washed with 4 mL each of 50 mM NaCl, 100 mM NaCl, 200 mM NaCl, 300 mM NaCl, 400 mM NaCl, 500 mM NaCl and 1000 mM NaCl, 0.1 M phosphate, pH 7.0 buffer. The column was then washed with 1 M NH2OH 200 mM NH4CO3 pH 6.0 (4 mL) and finally eluted in 6M Gn.HCl 100 mM phosphate pH 6.5 (4 mL). Samples from all column fractions were monitored by absorbance at 280 nm and by HPLC.\nAffinity chromatography of the arrays of protein analogues was carried out as follows. […]", "values": [{"molecule": "D^147E^148: c-Crk SH3 domain analogue, dipeptide D147E148 replaced by Gly-[COS]-βAla", "binding to C3G peptide affinity column, active (binding) pool": "displayed appreciable binding"}, {"molecule": "K^164P^165: c-Crk SH3 domain analogue, dipeptide K164P165 replaced by Gly-[COS]-βAla", "binding to C3G peptide affinity column, active (binding) pool": "displayed appreciable binding; also recorded: without significant loss of binding activity"}, {"molecule": "R^162D^163: c-Crk SH3 domain analogue, dipeptide R162D163 replaced by Gly-[COS]-βAla", "binding to C3G peptide affinity column, active (binding) pool": "displayed appreciable binding; also recorded: without significant loss of binding activity"}, {"molecule": "E^148E^149: c-Crk SH3 domain analogue, dipeptide E148E149 replaced by Gly-[COS]-βAla", "binding to C3G peptide affinity column, active (binding) pool": "displayed appreciable binding"}, {"molecule": "D^163K^164: c-Crk SH3 domain analogue, dipeptide D163K164 replaced by Gly-[COS]-βAla", "binding to C3G peptide affinity column, active (binding) pool": "displayed appreciable binding; also recorded: without significant loss of binding activity"}, {"molecule": "I^161R^162: c-Crk SH3 domain analogue, dipeptide I161R162 replaced by Gly-[COS]-βAla", "binding to C3G peptide affinity column, active (binding) pool": "displayed appreciable binding; also recorded: without significant loss of binding activity"}, {"molecule": "L^151P^152: c-Crk SH3 domain analogue, dipeptide L151P152 replaced by Gly-[COS]-βAla", "binding to C3G peptide affinity column, active (binding) pool": "displayed appreciable binding"}, {"molecule": "N^146D^147: c-Crk SH3 domain analogue, dipeptide N146D147 replaced by Gly-[COS]-βAla", "binding to C3G peptide affinity column, active (binding) pool": "displayed appreciable binding"}]}, {"molecular_target": "T1, C3G-peptide", "assay": "not given", "conditions": "recombinant Crk-N; read-out: KD for binding the C3G-peptide in solution; cited from earlier work", "units": {"Kd": "nM"}, "values": [{"molecule": "recombinant Crk-N: recombinantly derived cCrk SH3 domain reported by Wu et al. Structure 1995", "Kd": 1900}]}]}
